Data on 50 sequences can be found in the domain aggregation screens of Martell et al. (2025).

The series can be described thus: soluble fraction after stress (log2 fold change); higher = more stays soluble; pooled small domains, quantitative proteomics. As to conditions: stress: 75 degC.

A value given as a limit tells only on which side of the number the result lay.
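Further: 20 min heating vs room temperature control held 20 min.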

As for “HMRNMVSVLDHIEGIGPKRRQLLYEHYGELEKIKEASVEEMAGLDGMNRPAAEAVYNFFLAQRNL”, the “soluble fraction (log2)” value is -0.247. With “HMRNSSLQTDLELRAYVIDGLNHFWTPEEIAGRWSLAHPDRPVSFATIYRHIKRKLLPGIEPKTHLRRRGK” the figure was -2.54; with “HMRPEARAASLSDEERKIFDYLAANGEKTIDNISVAVKMSAADILKNITLMSAKGLVYMPSAGRYGVKGN”, -0.297; with “HMRPNREKDMADLEKLAPFLLQMLTNYAQMTGDEKPLNAFITRFGYAAQIRDIQDFFMGPWHPA”, not below 1.04. The value for “HMRPQIAIDAIQALSLIMRTENKEDPTYLESRRVVSDAVAKRLSLNPTDLNRAWSRAPRDHQIAVLSALTQ” was -1.34; that for “HMRPRGTRLPTGWTPSSDALDWTKAEKPGLDPLQTLEKFRDYWTAQPGQKGVKTDWDATWRNWVRREIP” was -0.104; that for “HMRPSGTAGILRYLSSGAIRGIGATTAQRLVSEFGEKTLDVMENEPERVAMLKGISKSKAEDFSLQLKQS” was -0.0414. The value for “HMRPTAWEQVSRHIDQHGSIGNTEVRKAMETENVLAASKQIKKWLEQGLLIILNPTAGTRARRYSKPNM” was -1.19; that for “HMRPTDVLNYDESMRILNFSNNRVGFKHLMDAKGIEQVIFKNRKIGYRKSEILALKSELEAEQK” was -0.958. As to “HMRPYAYGTGRRKSSTARVHLIPNGSGSITINGRTLDEYFGLETLKLIVRQPLAATETAEKFDVEATVV”, the “soluble fraction (log2)” value is -0.638.

On to “HMRQDEKTLLYWIGAQVKREGKLIKTSTAQYLVEKTGTDMENLEKELEKLFAYTLDEKEITPAAIDEI”, for which the “soluble fraction (log2)” value was -1.77. Take “HMRQIRELFRLKFGSLLPTSDRQIAAQLGVARSTVAEYLERARAAGLSWPLPLDLSDADLEERLFA”: the “soluble fraction (log2)” value was -3.08.

With “HMRQMSEELQSAKEALEDRRTQEKAVLLLMEHRNISNDEAHRLLRKLAMDQGKRLPEVARALVSMAGVL”, the “soluble fraction (log2)” value is -0.319. With “HMRQSKMREAILAAVSAQKLEISDLHVWRIGEQRYAAIIGLATTQAESVSALRDSLAQMDKLVHLTIDQ” the figure was -2.21.

With “HMRQTGWVTADSLNVRARPSLQAERVEKVTYGQQVQIMFKQGQWYQIATENGKIGWVSSEYIAAVSP”, the “soluble fraction (log2)” value was -2.4. The value for “HMRRELDSEHKRQEILFAAKRLLLAEGYDATSMSRLAKEAGVAPNTLYWYFKDKDELLIAILDELVAE” was -2.74; that for “HMRRGKLGMASRLEQIPGIGPKKRKALLKAFGNSIDAIKSAPVEDLMKVKGINLVLAESIKEL” was -0.11. For “HMRRMTEEQSKLFQGLVSIVQTTLVADMEKGAVTPLLIAEKVDFVADNLYPGKDIDRKEAVAELIRRFSLW”, the “soluble fraction (log2)” value was -1.67. The value for “HMRRSKQERQQAIKTLISNEQIQRQEDLVRKLNEAGWEVTQATISRDITEMQLVKVPLPTGGFAYAVM” was -0.0517; that for “HMRRSKVMLESILDEIPQMGQARRAALLEQFGSVAALRKASLAEIAMTPGIGEKIAVIIFEYLQKSSH” was -1.69. With “HMRRTEKEIEQDVMRAIATIISEKGISSVTIKEVSNLSKTDVIVLERRFKNDEGLIKAYTSQ”, the “soluble fraction (log2)” value is -1. The value for “HMRSFADEGTVEEWIKQAIRENEAAVADYRKGKETAVKFLMGQVMRLSKGEANPADLEDKIKAKLD” was 0.0142.

Take “HMRSFGTVAQARGRWKAFYVGPDKRRHTPGVTFSNPIRAQGWLAQELTLIELGQWTPPAQRREKAEVAS”: the “soluble fraction (log2)” value was -2.26. Take “HMRSIVETLTDRELEIFQLIGNGFSTGEIARRLNLSPHTIETHRKNIKDKLGLSSGSELNKQAIQWVLSS”: the “soluble fraction (log2)” value is 0.244. In the case of “HMRSKTSYAVWTPIQIDAGSQMQALQSKGFNTVLMEGGISVGIRSDKAQAQALLNRLQGAGFTGQLREVN”, the “soluble fraction (log2)” value was -0.173. Turning to “HMRSLATFEEEKIALRFWNYLQSEGIKSTLEEEGPRDWVIWVIDEEKIPSATQSLEKFNLNPDDPAFSN”, the “soluble fraction (log2)” value was -0.784.

As to “HMRSLVDRSVQAVTDHIRENALRVGDSLPGEAYFATSLGVSRAVMREAFGALAALRVIDVGNGRKPRVGAI”, the “soluble fraction (log2)” value was -0.687. With “HMRSMEKRLTAKVKRVQEGVQAKSQAGEQPFEVVKLMQRFPKLMQFGKHAEAETVLDKALELLGEE” the figure was -0.0318.

In the case of “HMRSQLALVVRTGESQRLDNFLVNNLAWKSRNRLQGLIREGLVTVNGEKTKASRRVHLDDLVEIHL”, the “soluble fraction (log2)” value is -1.31. The value for “HMRSTIYEFTVPPGQLESIRLDVYITSFVENATRSKVQEAIKQGYVWVNGKHEKASYTMLPGDKIYIELPI” was -2.65; that for “HMRSVEVAAEPGMVLEDRQTGFVGAVVAVEKSGGTHLVVLEDRHGLRRGFPLGPGFWLEGRPVVLAPPP” was -1.01. In the case of “HMRTANREKRIEASVKMMKAGYPVGYIIARVFMYEGWEEDYRQLLIYLSEKIPKDVSNPITFEVIS”, the “soluble fraction (log2)” value is -0.622. With “HMRTEGNLGAKVRVLRRSQGMTQAELARRLGISPSYLNLIEHNRRSFTADLLVKLAKILPVNLKT” the figure was -2.5; with “HMRTITYSITPAHAGMSVERYLKQQHGYSTRTLVKLKHYPQGLQLNGQHARTVDLLQAGDTLAVTFLD”, -2.42. For the sequence “HMRTLSAGVAGRLRADILNGLLEPGRRLGMAELTERYGAGMSPVREALSRLVGEGLVQSEGQRGFRVA”, the “soluble fraction (log2)” value is -0.446. The value for “HMRTMFGQRLRLARKRAGLSMQALADRVTPSVSAQAISKYEADQMMPSSSVLVGLGKALGVSLDFLVGGQ” was -1.41. For “HMRTNVDISPKILEWVLSQVRNRTTNDVIETIQIWIKGEKPPTFNQVEKISKATGVPLGYFFLKTPPVED”, the “soluble fraction (log2)” value is -1.34. On to “HMRTPLTGREEQVATLIGRGMTNSEIAESLSVDESTVKTHIGSILRKVHLRDRLQVALWFHGLPIE”, for which the “soluble fraction (log2)” value is -0.67. For “HMRTTYKTRLETLLAGPMSAGDRRFASSLLDFYNRKNRLTPGRARFVAQLEDRYSAEALAARQG”, the “soluble fraction (log2)” value is -1.19. On to “HMRTVEQFQIRKIYAISNALGISDSRADEDELHVLVSGLTGKDSIKELTYREASVVIERLEELQ”, for which the “soluble fraction (log2)” value was -2.22. Consider “HMRVDDITDTILNVLKEQGGFISVTDKSSPETINKLFGVSKKTYKKAIGAIYRKKLIIIEDDGIRLNS”, for which the “soluble fraction (log2)” value was -2.4.

In the case of “HMRVDRSALDSIPGVGPGRKRTLLHHFGSARAVEASGLADLESIRGISKALARKIYDFFHPE”, the “soluble fraction (log2)” value is -1.55. With “HMRVELVVVPELRQQLLPEARELANSAGLQLRVRGQSPADETRTIVVTQSPAAGTRVAARSIVLVE” the figure was -1.12; with “HMRVPTVIGMDEGTAKATLANASLKSNIVYESDETKENGKVLSQGIEQNKEVKAGTTVEIKVNKIE”, 0.116; with “HMRVTEVSYDKFLDMLSGGQVTVVELQENERELYFKAADENGAERIYSTGVFPDADLQKRLSESGVTF”, -0.14. The value for “HMRYLHTMIRVSDLEESLNFFKLLDIHEVSRKENEQARFTLVFLSATGDEKLVENAKSPLIELTFN” was -0.0509; that for “HMRYLMPDLVNRRYEPVRSLLEARGIRFGNVIFEPYEGLPPGIVLRQDPPAGHPLPRRRTVSLVVSGPGGR” was -2.56; that for “HMRYQIAEARKLRDITQAELAEKMGTTQQTIQRYETNQVNIRMDKMIEMSEILNVSLAYLLGMSSSPEL” was -1.78. The value for “HMRYVVQVATFSSKNNAIRAADDLAGFVVVSNGYYRVRTGPYADRGEANAALAKARKAGYTDAFVDTS” was -2.19; that for “HMSAAYVYVTGTRVNQRDGPSTFDRVMGVLVEGTRVQLLRDQGQWAQIRSDLGTGWLSSGFLSRNG” was -1.88.
